In patent US12703750 (NORTHWESTERN UNIVERSITY, dated 2026):
Numbering of substitutions follows the chain as printed.

B1: Murine version of the BTE (scFv of anti-CD3 Okt3 and scFv of the murine anti-IL13Rα2 antibody) (bispecific antibody, V domains shown, not shown: small tags and cut ends)
VH: QVQLQQPGAELVRPGASVKLSCKASGYTFSNYLMNWVKQRPEQDLDWIGRIDPYDGDIDYNQNFKDKAILTVDKSSSTAYMQLSSLTSEDSAVYYCARGYGTAYGVDYWGQGTSVTVSS
VL: not shown
notes: Control BTE; also called Okt3BTE; chimeric BTE using the mouse monoclonal Ab VH and VL domains
B2: Humanized antibody VH2 + VL2 (antibody, human IgG1, kappa, V domains shown)
VH: QVQLVQSGAEVKKPGASVKVSCKASGYTFSNYLMNWVRQAPGQRLEWMGRIDPYDGDIDYNQNFKDRVTITRDTSASTAYMELSSLRSEDTAVYYCARGYGTAYGVDYWGQGTLVTVSS
VL: DIQMTQSPSSLSASVGDRVTITCRASESVDNYGISFMNWYQQKPGKAPKLLIYAASRQGSGVPSRFSGSGSGTDFTLTISSLQPEDFATYYCQQSKEVPWTFGGGTKLEIKR
B3: Humanized antibody VH1 + VL2 (antibody, human IgG1, kappa, V domains shown)
VH: B2 VH with A16S, R44G, R72A, T74K, A76T
VL: B2 VL
B4: Humanized antibody VH3 + VL2 (antibody, human IgG1, kappa, V domains shown)
VH: B2 VH with R44G, I70M, A76T, A79V
VL: B2 VL
B5: Humanized antibody VH4 + VL2 (antibody, human IgG1, kappa, V domains shown)
VH: B2 VH with P41T, R44G, D73N, A76I
VL: B2 VL
B6: Humanized antibody VH2 + VL3 (antibody, human IgG1, kappa, V domains shown)
VH: B2 VH
VL: EIVLTQSPATLSLSPGERATLSCRASESVDNYGISFMNWYQQKPGQAPRLLIYAASRQGSGIPARFSGSGSGTDFTLTISSLEPEDFAVYYCQQSKEVPWTFGGGTKLEIKR
notes: also called U3621EI120 VH2+VL3
B7: Humanized antibody VH1 + VL3 (antibody, human IgG1, kappa, V domains shown)
VH: B2 VH with A16S, R44G, R72A, T74K, A76T
VL: B6 VL
B8: Humanized antibody VH1 + VL4 (antibody, human IgG1, kappa, V domains shown)
VH: B2 VH with A16S, R44G, R72A, T74K, A76T
VL: B6 VL with L4M, L13V, D74E, E83Q, P84S
notes: also called U3621EI120 VH1+VL4
B9: Humanized antibody VH2 + VL4 (antibody, human IgG1, kappa, V domains shown)
VH: B2 VH
VL: B6 VL with L4M, L13V, D74E, E83Q, P84S
B10: Humanized antibody VH3 + VL3 (antibody, human IgG1, kappa, V domains shown)
VH: B2 VH with R44G, I70M, A76T, A79V
VL: B6 VL
B11: Humanized antibody VH3 + VL4 (antibody, human IgG1, kappa, V domains shown)
VH: B2 VH with R44G, I70M, A76T, A79V
VL: B6 VL with L4M, L13V, D74E, E83Q, P84S
B12: Humanized antibody VH4 + VL3 (antibody, human IgG1, kappa, V domains shown)
VH: B2 VH with P41T, R44G, D73N, A76I
VL: B6 VL
B13: Humanized antibody VH4 + VL4 (antibody, human IgG1, kappa, V domains shown)
VH: B2 VH with P41T, R44G, D73N, A76I
VL: B6 VL with L4M, L13V, D74E, E83Q, P84S

Assays:
[1] = molecular target: T1, human recombinant IL13Rα2hFc (cat #7147-IR-100, R&D Systems) (human, UniProt Q14627 27-343); experiment: plate ELISA on coated IL13Rα2hFc (1 µg/mL), detection with anti-6xHis-HRP, OD450 [continued) D]
T1 construct: Bought; also called recombinant human IL13Ra2; not shown: human Fc ('hFc') of the bought fusion protein
T1 sequence (looked up): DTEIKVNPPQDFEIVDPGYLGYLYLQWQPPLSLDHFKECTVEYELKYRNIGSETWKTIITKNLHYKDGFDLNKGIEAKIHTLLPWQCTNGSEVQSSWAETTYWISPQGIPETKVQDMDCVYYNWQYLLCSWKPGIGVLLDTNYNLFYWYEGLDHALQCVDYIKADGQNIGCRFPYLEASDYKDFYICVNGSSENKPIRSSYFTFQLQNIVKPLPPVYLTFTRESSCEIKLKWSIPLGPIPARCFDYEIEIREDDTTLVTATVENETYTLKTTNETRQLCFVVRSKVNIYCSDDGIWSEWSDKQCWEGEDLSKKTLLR

Human IL13Rα2 [2] = molecular target: T2, Human IL13Rα2 (human, UniProt Q14627 27-343, limits assumed); experiment: SPR Biacore 8K affinity ranking, antibody supernatant Fc-captured, 100 nM IL13Rα2 analyte
T2 construct: also called human recombinant IL13Rα2; Human IL13Ra2
T2 sequence (looked up): T1 sequence (looked up)

Human IL13Rα2 [3] = molecular target: T2, Human IL13Rα2; experiment: SPR Biacore T200, purified IgG Fc-captured, IL13Rα2 as analyte

Binder	EC50 (read off the curve) [1]	Kd (Human IL13Rα2 [2])	koff (Human IL13Rα2 [2])	kon (Human IL13Rα2 [2])	Kd (Human IL13Rα2 [3])	koff (Human IL13Rα2 [3])	kon (Human IL13Rα2 [3])
B1	~0.5 µg/mL						
B2		0.857 nM	0.000555 s⁻¹	648000 M⁻¹ s⁻¹			
B3		0.758 nM	0.000312 s⁻¹	412000 M⁻¹ s⁻¹			
B4		0.698 nM	0.000595 s⁻¹	852000 M⁻¹ s⁻¹			
B5		0.597 nM	0.000445 s⁻¹	746000 M⁻¹ s⁻¹			
B6		1.17 nM	0.000761 s⁻¹	649000 M⁻¹ s⁻¹	0.513 nM	0.00042 s⁻¹	820000 M⁻¹ s⁻¹
B7		0.9 nM	0.000463 s⁻¹	514000 M⁻¹ s⁻¹			
B8		0.599 nM	0.000269 s⁻¹	449000 M⁻¹ s⁻¹	0.297 nM	0.00022 s⁻¹	741000 M⁻¹ s⁻¹
B9		1.35 nM	0.000748 s⁻¹	555000 M⁻¹ s⁻¹			
B10		1.13 nM	0.000702 s⁻¹	620000 M⁻¹ s⁻¹			
B11		0.984 nM	0.000615 s⁻¹	625000 M⁻¹ s⁻¹			
B12		0.877 nM	0.000675 s⁻¹	769000 M⁻¹ s⁻¹			
B13		0.594 nM	0.000501 s⁻¹	844000 M⁻¹ s⁻¹			
